Data taken from the Human Domainome abundance scans (Beltran et al. 2025).

B1: Intersectin-1, residues 1156 to 1213; numbered along this chain, Q15811 (parent)
chain: AVCQVIGMYDYTAQNDDELAFNKGQIINVLNKEDPDWWKGEVNGQVGLFPSNYVKLTT
B2: SH3 and PX domain-containing protein 2B, residues 155 to 209; numbered along this chain, A1X283 (parent)
chain: EQYVVVANYQKQESSEISLSVGQVVDIIEKNESGWWFVSTAEEQGWVPATCLEGQ

Variants of: B1
Experiment: abundance fitness (aPCA) (normalised: wild type 0, dead -1); higher = more abundant; growth selection in yeast, the domain comes from the species named
Conditions: Homo sapiens

Abundance fitness of substitutions, site by site:
A1: E -0.082, T -0.213, V -0.068, D -0.322, R -0.1, S 0.127
Y9: T 0.257, P -0.835, Q 0.535, E 0.338, D 0.196, K 0.474, L 0.263, N 0.418, I 0.431, G -0.164, R 0.538, H 0.278, F 0.259, A 0.362, V 0.336, C 0.387
Q4: V -0.488, S -0.277, C -0.57, D -1.15, R -0.354, E -0.629, W -0.451, F -0.719, M -0.527, Y -0.487, T -0.207, A -0.826, P -0.817, I -0.391, H -0.373, G -0.6, L -0.538, K -0.236
V5: W -0.574, Q -0.673, F -0.772, L -0.891, A -0.045, T -0.526, C 0.005, H -0.644, D -0.711, N -0.902, I -0.823, G -0.309, E -0.843, R -0.831, P -0.94, Y -0.309, K -0.708, M -0.737, S -0.813
Y11: S -0.769, N -0.937, G -0.655, I -0.563, K -0.879, F -0.271, D -0.928, L -0.851, M -0.698, V -0.765, C -0.509, P -0.759, H 0.077, T -0.555, E -0.809, Q -0.692, R -0.374, W -0.932
C3: N -0.252, V -0.374, R -0.555, H -0.706, A -0.463, M -0.094, D -0.033, S -0.452, K -0.597, W -0.449, L -0.387, Y -0.184, Q -0.606, F -0.155, T -0.123, P -0.901, G -0.308
G7: A 0.54, K -0.772, N -1.15, D -0.721, C 0.176, F -0.739, Q -0.893, H -0.466, P -0.519, Y -1.13, S 0.309, M -0.681, R -0.849, W -0.775, V -0.551, L -0.618
V2: C -0.357, L -0.375, F -0.268, W -0.384, D -0.142, Y -0.264, A -0.492, H -0.105, R -0.003, T -0.187, K -0.06, S -0.233, N -0.223, G -0.115, E -0.074, M -0.205, Q -0.466, P -0.222
M8: I 0.542, A 0.209, D -0.67, N -0.576, Q 0.31, E 0.541, L 0.333, T -0.002, P -0.914, G -0.51, R 0.145, F -0.286, C -0.02, S -0.233, W -0.3, H -0.167, Y -0.472
I6: F -0.619, W -0.688, C -0.386, T -0.388, G -0.64, E -0.013, R -0.446, S -0.655, A -0.639, L -0.47, V 0.159, M -0.092, Y -0.548, N -0.765, D -0.922, Q -0.156, K -0.269
D10: W -0.507, A -0.217, P -0.246, V -0.661, H -0.262, I -0.919, M 0.001, S -0.093, Y -0.838, L -0.724, G -0.59, R -0.335, F -1.01, C -0.472, Q -0.625, N -0.227
T12: D -0.203, C -0.464, A -0.075

Variants of: B2
Experiment: as above
Conditions: Homo sapiens

Abundance fitness, by site and new letter:
W46: Y -0.051
P48: Y -1.03, F -0.998, A -0.626, V -0.79, M -0.76, N -0.492, D -0.252, I -0.956, T -0.888, H -0.455, S -0.544, G -1, K -0.334, R -0.306, E -0.522, L -0.455, W -0.835, C -0.614, Q -0.568
Q55: R 0.054, S -0.133, E -0.341, W -0.329, M -0.233, I -0.099, Y -0.267, P 0.045, G -0.229, L -0.138, D -0.034, N -0.551, H -0.004, V -0.44, T -0.07
V47: F -0.229, L -0.319, I 0.11, P -0.922, M -0.453, N -1.05, S -0.567, E -0.776, D -1.1, K -0.929, G -0.493, A -0.106, R -0.72, C 0.001, W -1.11, Y -0.45, H -0.967, T -0.552
E53: H -0.138, K -0.004, Q 0.027, T -0.018, D -0.073, M -0.144, I -0.289, G -0.008, A -0.014, V -0.128, W -0.477, R -0.064, L -0.2, S -0.05, C -0.14, F -0.33, Y -0.252
T50: G 0.001, K 0.09, F -0.337, M -0.243, E -0.096, D -0.093, H -0.299, P -0.134, S -0.046, Y -0.095, C -0.144, L -0.125, Q -0.161, W 0.049, A -0.052, R -0.023, N -0.159
C51: Q -0.349, L -0.267, A -0.12, V -0.107, R -0.343, E -0.944, T -0.222, F -0.212, W -0.596, M -0.787, P -0.959, K -0.245, S -0.219, G -0.711, H -0.322, Y -0.271, D -0.737
A49: C 0.045, K -0.053, M 0.003, R -0.146, E -0.273, L -0.012, Y -0.237, V -0.207, T -0.191, D -0.214, F -0.139, P -0.105, Q -0.327, N 0.02, H 0.118, G -0.016, W -0.586
G54: N 0.025, C -0.04, F -0.143, M -0.098, E 0.11, Q 0.121, V 0.008, D -0.144, T -0.069, Y -0.042, R -0.019, H -0.345, I 0.079, A 0, K -0.231, P -0.112, L 0.07
L52: C -0.227, H -0.773, W -0.775, F -0.083, D -0.942, V -0.049, Q -1.05, N -1.05, P -0.826, M -0.168, E -1.1, Y -1.07, T -1.22, K -0.647, R -0.835
